We go through 8 molecules from patent US20100048462A1, “TRUNCATED PTH PEPTIDES WITH A CYCLIC CONFORMATION” (Zealand Pharma A/S, priority 2006, published 2010).

Bridge positions count the residues as written; N and C are the ends. Square brackets hold non-standard residues; d marks the D form. hArg = N=C(N)NCCCC[C@H](N)C(=O)O; Met(O) = CS(=O)CC[C@H](N)C(=O)O; Ac5c = NC1(C(=O)O)CCCC1; Aib = CC(C)(N)C(=O)O

The target of this experiment is Saos-2 PTH1R (UniProt Q03431). The experiment in a line: cell-based or functional assay.

Regarding “H-Ac5c-Val-Aib-Glu-Ile-Gln-Leu-Leu-His-Gln-Har-Arg-Lys( )-Trp-Leu-Asn-Asp( )-NH2 (peptide)”, the Emax, cAMP efficacy assay in Saos-2 cells (28T, trifluoroacetate salt) (relative to control (SEQ ID NO: 32)) was determined as 0.95 and the pEC50, cAMP efficacy assay in Saos-2 cells (28T, trifluoroacetate salt) was 8.27 -log(M).
As for “H-Ac5c-Val-Aib-Glu-Ile-Gln-Leu-Met-His-Gln-Har-Ala-Asp( )-Trp-Leu-Asn-Lys( )-NH2 (peptide)”, the Emax, cAMP efficacy assay in Saos-2 cells (6T, trifluoroacetate salt) (relative to control (SEQ ID NO: 32)) is 1.5 and the pEC50, cAMP efficacy assay in Saos-2 cells (6T, trifluoroacetate salt) is 6.9 -log(M).
In the case of “H-Ac5c-Val-Aib-Glu-Ile-Gln-Leu-Met-His-Gln-Har-Ala-Lys( )-Phe-Leu-Asn-Asp( )-NH2 (peptide)”, the Emax, cAMP efficacy assay in Saos-2 cells (26T, trifluoroacetate salt) (relative to control (SEQ ID NO: 32)) worked out at 1.08 and the pEC50, cAMP efficacy assay in Saos-2 cells (26T, trifluoroacetate salt) is 7.9 -log(M).
For “H-Ac5c-Val-Nva-Glu-Ile-Gln-Leu-Leu-His-Gln-Har-Ala-Lys( )-Trp-Leu-Asn-Asp( )-NH2 (peptide)”, the Emax, cAMP efficacy assay in Saos-2 cells (16T, trifluoroacetate salt) (relative to control (SEQ ID NO: 32)) was 1.03 and the pEC50, cAMP efficacy assay in Saos-2 cells (16T, trifluoroacetate salt) is 6.92 -log(M).
For the molecule “H-Ac6c-Val-Aib-Glu-Ile-Gln-Leu-Leu-His-Gln-Har-Ala-Lys( )-Trp-Leu-Asn-Asp( )-NH2 (peptide)”, the Emax, cAMP efficacy assay in Saos-2 cells (10T, trifluoroacetate salt) (relative to control (SEQ ID NO: 32)) amounted to 1.08 and the pEC50, cAMP efficacy assay in Saos-2 cells (10T, trifluoroacetate salt) was 7.9 -log(M).
As to “H-Nva-Val-Aib-Glu-Ile-Gln-Leu-Leu-His-Gln-Har-Ala-Lys( )-Trp-Leu-Asn-Asp( )-NH2 (peptide)”, the Emax, cAMP efficacy assay in Saos-2 cells (12T, trifluoroacetate salt) (relative to control (SEQ ID NO: 32)) worked out at 1.04 and the pEC50, cAMP efficacy assay in Saos-2 cells (12T, trifluoroacetate salt) is 6.99 -log(M).
In the case of H-[Ac5c]V[Aib]EIQLMHQ[hArg]AKWLND-OH, the Emax, cAMP efficacy assay in Saos-2 cells (38T, trifluoroacetate salt) (relative to control (SEQ ID NO: 32)) is 1.2 and the pEC50, cAMP efficacy assay in Saos-2 cells (38T, trifluoroacetate salt) is 7 -log(M).
Consider H-[Ac5c]V[Aib]EIQL[Met(O)]HQ[hArg]AKWLND-NH2 (lactam 13-17) [H-Ac5c-Val-Aib-Glu-Ile-Gln-Leu-Met(O)-His-Gln-Har-Ala-Lys( )-Trp-Leu-Asn-Asp( )-NH2], for which the Emax, cAMP efficacy assay in Saos-2 cells (40T, trifluoroacetate salt) (relative to control (SEQ ID NO: 32)) came out at 1.1 and the pEC50, cAMP efficacy assay in Saos-2 cells (40T, trifluoroacetate salt) was 6.9 -log(M).
